Assay results as given in publication PMC9458691.
Each block holds one substance with its values, some of them ahead of it.

How the values were obtained:
Experiment in all cases: native gel or EMSA; Blue Native PAGE, gradient from 3.5 to 16% polyacrylamide, of the IEC fractions of affinity purified PSII
[1] = molecular target: Psb27-PSII complex isolated via CP43-TS-Tag (PSII with Psb27, without the extrinsic subunits) (T. elongatus (endogenous in T. elongatus BP-1) | Thermosynechococcus elongatus BP-1) (UniProt P0A444)
[2] = molecular target: PSII with the protein composition of mature PSII, isolated via His-tagged CP43 (T. elongatus (endogenous in T. elongatus) | Thermosynechococcus elongatus) (UniProt P0A444)
[3] = molecular target: PSII with the protein composition of mature PSII, isolated via CP43-TS-Tag (T. elongatus (endogenous in T. elongatus BP-1) | Thermosynechococcus elongatus BP-1) (UniProt P0A444)
[4] = molecular target: Psb27-PSII complex isolated via His-tagged CP43 (PSII with Psb27, without the extrinsic subunits) (T. elongatus (endogenous in T. elongatus) | Thermosynechococcus elongatus) (UniProt P0A444)

stoichiometry N [1]: 2
Substance: Psb27-PSII complex isolated via CP43-TS-Tag (PSII with Psb27, without the extrinsic subunits) (from UniProt P0A444 1-344; Q8CM25 1-352; Q8DIF8 1-461; Q8DIQ1 1-510; Q8DG60 22-134)

stoichiometry N [2]: 2
Substance: PSII with the protein composition of mature PSII, isolated via His-tagged CP43 (from UniProt P0A444 1-344; Q8CM25 1-352; Q8DIF8 1-461; Q8DIQ1 1-510; P0A431 27-272; Q9F1L5 31-134; P0A386 27-163) (complex)

stoichiometry N [3]: 2
Substance: PSII with the protein composition of mature PSII, isolated via CP43-TS-Tag (from UniProt P0A444 1-344; Q8CM25 1-352; Q8DIF8 1-461; Q8DIQ1 1-510; P0A431 27-272; Q9F1L5 31-134; P0A386 27-163) (complex)

stoichiometry N [4]: 2
Substance: Psb27-PSII complex isolated via His-tagged CP43 (PSII with Psb27, without the extrinsic subunits) (from UniProt P0A444 1-344; Q8CM25 1-352; Q8DIF8 1-461; Q8DIQ1 1-510; Q8DG60 22-134)
